In the supplement of paper PMC11865577:

Legend:
Assay in all cases: pull-down binding Z-score (relative to library population); higher = stronger binding
Conditions in all cases: RNA library: Library-2
[1] = tested on: TO-3-N3 (biotin conjugate)
Procedure, shortened: (§1)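 Streptavidin beads with 100 pmol of biotin-conjugated small molecule were incubated for 60 min at 25 °C with 1 μg of heat-folded Cy5- or Cy3-end-labelled RNA library in phosphate/NaCl/KCl buffer. Bound RNA was eluted in hot SDS after three washes and hybridised to a DNA barcode microarray at 55.5 °C for 20 h. Each binding score is a library-referenced Z-score, computed after beads-only subtraction and a trimmed mean of barcoded replicate probes.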

[2] = tested on: TO-3-N3-2 (biotin conjugate)
Procedure, shortened: as §1

TO-N3 (biotin conjugate) = tested on: TO-N3 (biotin conjugate)
Procedure, shortened: as §1

[3] = tested on: TO-N3-2 (biotin conjugate)
Procedure, shortened: as §1

Sequence	pull-down binding Z-score [1]	pull-down binding Z-score [2]	pull-down binding Z-score (TO-N3 (biotin conjugate))	pull-down binding Z-score [3]
CCUUCACACUCAAAGGCGGUGCACCAACAAAGGUUACUUUUGGUGAUGACACUGUGAUAGAAGUGCAAGG [SHAPE_invitro_SARS-CoV-2_Motif_51]	-0.728	-0.155	-0.605	-0.0884
CCUUCACUGUAGAAAAAGG [SHAPE_invivo_SARS-CoV-2_Motif_423]	-0.468	-0.29	-0.772	-0.52
CCUUGCACCUAAUAUGAUGGUAACAAACAAUACCUUCACACUCAAAGGCGGUGCACCAACAAAGGUUACUUUUGGUGAUGACACUGUGAUAGAAGUGCAAGG [SHAPE_invivo_SARS-CoV-2_Multi_7_ComplexLevel_1]	-0.657	-0.454	-0.857	-0.526
CCUUGCGAAAGGAGAGAAGGCUAAUGUGCUAAUUGGGCAAGG [IAV_invivo_PB2_1_Motif_34+IAV_invivo_PB2_1_Motif_34]	-0.245	0.584	0.291	0.837
CCUUGUAGGUUUGUUACAGACACACCUAAAGG	-0.369	-0.655	-0.262	-0.614
CCUUUAGUACCUUUCUGGAUAACAAUUGCUUAUAUCAUUUGUAUUUCCACAAAGCAUUUCUAUUGG	-0.884	-0.843	-1.06	-0.78
CGAGUCUCUGAAACUCUACAGAGAUUCG [IAV_invivo_NS1_NEP_8_Motif_12+IAV_invivo_NS1_NEP_8_Motif_12]	-1	-0.606	-0.524	-0.636
CGCAGGGAAUGGAUAAUCUUGCCUGCG	-0.486	-0.153	-0.607	-0.759
CGGAUUCUGAAAGAAGAAUCCG [IAV_invivo_NS1_NEP_8_Motif_5+IAV_invivo_NS1_NEP_8_Motif_5]	0.432	-0.255	0.0717	-0.902
CGGCAUCAUAUGGGUUGCAACUGAGGGAGCCUUGAAUACACCAAAAGAUCACAUUGGCACCCGCAAUCCUGCUAACAAUGCUG [SHAPE_invitro_SARS-CoV-2_Motif_522]	-0.511	0.0568	-0.253	0.334
CGGCGGGCACGUAGUGUAGCUAGUCAAUCCAUCAUUGCCUACACUAUGUCACUUGGUG [SHAPE_invitro_SARS-CoV-2_Motif_429]	0.745	0.313	1.13	1.07
CGGGACCAACGAGGAAAUGUACUACUGUCUCCCG [IAV_invivo_PB2_1_Motif_23+IAV_invivo_PB2_1_Motif_23]	-0.431	0.118	-0.196	0.354
CGGGCUUAUGUUGCUCG	-0.429	-0.43	-0.791	-0.956
CGGGGCGGGAGGGGAAGGGACGCCCG [hsa-mir-6850]	6.93	7.75	6.39	5.1
CGGUUGCUUGGUCAGCAAGUGCAUGUCAUGAUGGCAUGGGCUGGCUAACAAUCG [IAV_invivo_NA_6_Motif_7+IAV_invivo_NA_6_Motif_7]	-0.929	-0.69	-0.939	-0.222
CGUGGUAUUCUUGCUAGUUACACUAGCCAUCCUUACUGCG	-0.913	-0.37	-1.1	-0.427
CGUUCGGAUGCUCGAACUGCACCUCAUGGUCAUGUUAUGGUUGAGCUGGUAGCAGAACUCGAAGGCAUUCAGUACG [SHAPE_invitro_SARS-CoV-2_Motif_11]	-0.289	-0.454	0.0804	1.57
CUAACAAUCUAGUUGUAAUGGCCUACAUUACAGGUGGUGUUGUUCAG [SHAPE_invivo_SARS-CoV-2_Motif_39]	-0.352	-0.607	-0.379	-0.761
CUAACAUGCUUAG [SHAPE_invitro_SARS-CoV-2_Motif_280]	0.709	-0.299	0.578	-0.734
CUAACUGAGAAUAAAUAUUCUCAAUUAG	-0.985	-0.937	-1.59	-1.87
CUAAGUCACUAACUGAGAAUAAAUAUUCUCAAUUAGAUGAAGAG	-1.02	-0.135	-1.15	-0.981
CUAAUAACACUAAAGGUUCAUUGCCUAUUAAUGUUAUAG	0.171	-0.0592	-0.0515	-0.904
CUACAAAGCAACCAUGAUCUGUAUUGUCAAGUCCAUGGUAAUGCACAUGUAG	-0.654	-0.092	-0.227	0.374
CUACACUAGUGCCACAAGAGCACUAUGUUAG	-0.402	-0.213	-0.127	0.417

Sequence	pull-down binding Z-score [1]	pull-down binding Z-score [2]	pull-down binding Z-score (TO-N3 (biotin conjugate))	pull-down binding Z-score [3]
CUAGGUUUUUCUAUGUACUUGG	1.15	0.313	0.825	-0.376
CUAGUUGUGAUGCAAUCAUGACUAG	-0.351	-0.444	-0.883	-1.39
CUAUACAUUCUUUAAGAGUUUGUGUAG	-0.365	-0.294	-0.583	-1.28
CUAUACUGUUACUAGAUCAGGCAUUAGUGUCUGAUGUUGGUGAUAGUGCGG	-0.845	-0.622	-0.939	-0.582
CUAUAGUAGCUGGUGGUAUUGUAGCUAUCGUAG [SHAPE_invitro_SARS-CoV-2_Motif_182]	0.653	0.54	0.874	1.04
CUAUCAGGCCGGUAG [DMSMaPseq_invitro_SARS-CoV-2_Motif_406]	-0.61	-0.579	-0.672	-0.0779
CUAUUCAAACAAUUGUUGAGGUUCAACCUCAAUUAGAGAUGGAACUUACACCAGUUGUUCAGACUAUUGAAGUGAAUAGUUUUAG [SHAPE_invivo_SARS-CoV-2_Multi_36_ComplexLevel_1]	-0.49	-0.292	-0.421	-0.461
CUCAAACCCGUCCUUGAUUGGCUUGAAGAGAAGUUUAAGGAAGGUGUAGAG [DMSMaPseq_invitro_SARS-CoV-2_Motif_41]	-0.564	-0.174	-0.455	-0.0884
CUCAGAGUAGAAAUUUACAAGAAUUUAAACCCAGGAG [DMSMaPseq_invitro_SARS-CoV-2_Motif_359]	-0.646	-0.119	-0.463	-0.531
CUCAGUCCAAGAUGGUAUUUCUACUACCUAGGAACUGGG [SHAPE_invivo_SARS-CoV-2_Motif_544]	-0.642	-0.217	-0.646	-0.627
CUCCAAAAAGAG	-0.901	-0.675	-1.21	-1.2
CUCCAGCACGGAG [IAV_invivo_PB2_1_Motif_21+IAV_invivo_PB2_1_Motif_21]	-0.457	-0.425	-0.877	-1.17
CUCCAGGAGGGG [IAV_invivo_PB2_1_Motif_10+IAV_invivo_PB2_1_Motif_10]	-0.481	-0.312	-0.668	-0.309
CUCCUUUGAUGGUUGCAUACAUGUUGGAG [IAV_invivo_PB2_1_Motif_8+IAV_invivo_PB2_1_Motif_8]	-0.359	-0.208	-0.689	-0.427
CUCGUCUAUCUUCUGCAGGCUGCUUACGGUUUCGUCCGUGUUGCAGCCGAUCAUCAGCACAUCUAGGUUUCGUCCGGGUGUGACCGAAAGGUAAGAUGGAGAG	-0.0693	-0.556	-0.000928	0.408
CUCGUCUAUCUUCUGCAGGCUGCUUACGGUUUCGUCCGUGUUGCAGCCGAUCAUCAGCACAUCUAGGUUUUGUCCGGGUGUGACCGAAAGGUAAGAUGGAGAG	-0.827	-0.563	-0.836	-0.32
CUCUAUGACAAACUUGUUUCAAGCUUUUUGGAAAUGAAGAGUGAAAAGCAAGUUGAACAAAAGAUCGCUGAG	-0.302	-0.291	-0.314	-0.00802
CUCUCAUCGAUCUCCAAGAACUUGGAAAGUAUGAGCAG [SHAPE_invitro_SARS-CoV-2_Motif_456]	-0.197	-0.286	-0.095	0.281
CUCUCAUUUUGUUAACUUAGACAACCUGAGAG	-0.827	-0.35	-1.13	-1.2
CUCUGGAACACUUUUACAAGACUUCAGAG [SHAPE_invivo_SARS-CoV-2_Motif_367]	-0.0115	-0.651	-0.338	-0.513
CUCUUGAGUGCAUUAAAGACCUUCUAGCACGUGCUGGUAAAGCUUCAUGCACUUUGUCCGAACAACUGGACUUUAUUGACACUAAGAG [SHAPE_invitro_SARS-CoV-2_Multi_69_ComplexLevel_1]	-0.706	-0.197	-0.515	0.585
CUCUUGUAAUGUAAACAGAUUUAAUGUUGCUAUUACCAGAG	0.0416	-0.0635	0.0725	-0.0897
CUGAAAAAUGGGAAUCUGGAGUAAAAGACUGUGUUGUAUUACACAGUUACUUCACUUCAGACUAUUACCAG	-0.376	-0.182	-0.329	-0.48
CUGACAAAGUUUUCAG	0.631	-0.329	0.341	-0.543
